Patent US20260027153A1 (published 2026)

Tests used:
[1] = target: HLA-A*02:01 restricted NY-ESO-1 C9V peptide (…) pMHC (human); assay: transduced PBMCs loaded on pMHC-labeled nanovials (20 µg/ml pMHC), flow cytometry
[2] = target: HLA-A*02:01 restricted NY-ESO-1 C9V peptide (…) pMHC (human); assay: transduced PBMCs loaded on pMHC-labeled nanovials (20 µg/ml pMHC), anti-NGFR staining, flow cytometry
[3] = target: T1, SCAMP3 (secretory carrier-associated membrane protein 3), cancer-enhanced splicing epitope peptide on … (human); assay: multimer staining
T1 peptide: STMYYLWML

[4] = target: T2, MEAF6 (MYST/Esa1 associated factor 6) splicing variant peptide on HLA-A*02:01 (human); assay: multimer staining
T2 peptide: SGMFDYDFEYV

Molecule: 1G4 TCR
- fraction of nanovials occupied by live cells [1]: 17%
- fraction of nanovial-bound live cells with NGFR expression [2]: 93.9%

B1: NVTCR11 (TCR, V domains shown)
Valpha: GIQVEQSPPDLILQEGANSTLRCNFSDSVNNLQWFHQNPWGQLINLFYIPSGTKQNGRLSATTVATERYSLLYISSSQTTDSGVYFCAVDLNDYKLSFGAGTTVTVRA
Vbeta: NAGVTQTPKFRVLKTGQSMTLLCAQDMNHEYMYWYRQDPGMGLRLIHYSVGEGTTAKGEVPDGYNVSRLKKQNFLLGLESAAPSQTSVYFCASSSHGSTGELFFGEGSRLTVL
- binding result [3]: recognises

B2: NVTCR19 (TCR, V domains shown)
Valpha: KQEVTQIPAALSVPEGENLVLNCSFTDSAIYNLQWFRQDPGKGLTSLLLIQSSQREQTSGRLNASLDKSSGRSTLYIAASQPGDSATYLCAVTSGGSYIPTFGRGTSLIVHP
Vbeta: DGGITQSPKYLFRKEGQNVTLSCEQNLNHDAMYWYRQDPGQGLRLIYYSQIVNDFQKGDIAEGYSVSREKKESFPLTVTSAQKNPTAFYLCASSDPFRSGTDSPLHFGNGTRLTVT
- binding result [3]: recognises

B3: NVTCR21 (TCR, V domains shown)
Valpha: AQSVAQPEDQVNVAEGNPLTVKCTYSVSGNPYLFWYVQYPNRGLQFLLKYITGDNLVKGSYGFEAEFNKSQTSFHLKKPSALVSDSALYFCAVRDTPSGSARQLTFGSGTQLTVLP
Vbeta: GAGVSQTPSNKVTEKGKYVELRCDPISGHTALYWYRQSLGQGPEFLIYFQGTGAADDSGLPNDRFFAVRPEGSVSTLKIQRTERGDSAVYLCASSLTSSGGGPYNEQFFGPGTRLTVL
- binding result [4]: recognises
